Measurements published in the supplement of paper PMC9233669.
Variants at the floor of the assay were thinned out.

Legend:
[1] = test system: biotinyl-Phe-oxazolone; experiment: self-aminoacylation, catalytic enhancement (BFO) (fold over background); higher = more active; k-Seq, kA / k0A0; sequences stand for … in GGGAAUGGAUCCACAUCUACGAAUUC…UUCACUGCAGACUUGACGAAGCUG
In short: (§1)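 Mutagenized RNA pools (0.43 μM; 21-nt variable region) were treated with 2–1250 μM of each biotinyl-aminoacyl-oxazolone. Conditions were 50 μL HEPES/NaCl/KCl/MgCl2/CaCl2 buffer, 5% acetonitrile, pH 6.9–7.0, room temperature, 90 minutes. Catalytic enhancement, the median kA relative to the uncatalyzed rate, was derived from streptavidin capture, qPCR and Illumina sequencing.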

[2] = test system: biotinyl-Ile-oxazolone; experiment: self-aminoacylation, catalytic enhancement (BIO) (fold over background); higher = more active; k-Seq, kA / k0A0; sequences stand for … in GGGAAUGGAUCCACAUCUACGAAUUC…UUCACUGCAGACUUGACGAAGCUG
In short: as §1

[3] = test system: biotinyl-Val-oxazolone; experiment: self-aminoacylation, catalytic enhancement (BVO) (fold over background); higher = more active; k-Seq, kA / k0A0; sequences stand for … in GGGAAUGGAUCCACAUCUACGAAUUC…UUCACUGCAGACUUGACGAAGCUG
In short: as §1

[4] = test system: biotinyl-Leu-oxazolone; experiment: self-aminoacylation, catalytic enhancement (BLO) (fold over background); higher = more active; k-Seq, kA / k0A0; sequences stand for … in GGGAAUGGAUCCACAUCUACGAAUUC…UUCACUGCAGACUUGACGAAGCUG
In short: as §1

[5] = test system: biotinyl-Trp-oxazolone; experiment: self-aminoacylation, catalytic enhancement (BWO) (fold over background); higher = more active; k-Seq, kA / k0A0; sequences stand for … in GGGAAUGGAUCCACAUCUACGAAUUC…UUCACUGCAGACUUGACGAAGCUG
In short: as §1

[6] = test system: biotinyl-Met-oxazolone; experiment: self-aminoacylation, catalytic enhancement (BMO) (fold over background); higher = more active; k-Seq, kA / k0A0; sequences stand for … in GGGAAUGGAUCCACAUCUACGAAUUC…UUCACUGCAGACUUGACGAAGCUG
In short: as §1

## AAGUAUGAUAAUAGUCGCAAG [Fam3.1 aminoacylation ribozyme variant]
[1]
  self-aminoacylation: 1.35
[2]
  self-aminoacylation: 1.22
[3]
  self-aminoacylation: 1.28
[4]
  self-aminoacylation: 1.1
[5]
  self-aminoacylation: 1.2
[6]
  self-aminoacylation: 1.13

## AAGUAUGCUAAUAAUCGCAAG [Fam3.1 aminoacylation ribozyme variant]
[1]
  self-aminoacylation: 2
[2]
  self-aminoacylation: 1.45
[3]
  self-aminoacylation: 1.05
[4]
  self-aminoacylation: 1.14
[5]
  self-aminoacylation: 1.39
[6]
  self-aminoacylation: 1.28

## AAGUAUGCUAAUAGUCGAAAG [Fam3.1 aminoacylation ribozyme variant]
[1]
  self-aminoacylation: 15.7
[2]
  self-aminoacylation: 1.48
[3]
  self-aminoacylation: 1.21
[4]
  self-aminoacylation: 1.31
[5]
  self-aminoacylation: 4.62
[6]
  self-aminoacylation: 1.7

## AAGUAUGCUAAUAGUCGCAAU [Fam3.1 aminoacylation ribozyme variant]
[1]
  self-aminoacylation: 1.96
[2]
  self-aminoacylation: 1.9
[3]
  self-aminoacylation: 1.52
[4]
  self-aminoacylation: 1.64
[5]
  self-aminoacylation: 1.75
[6]
  self-aminoacylation: 2.13

## AAGUAUGCUAAUAGUCGCAUG [Fam3.1 aminoacylation ribozyme variant]
[1]
  self-aminoacylation: 1.66
[2]
  self-aminoacylation: 1.34
[3]
  self-aminoacylation: 1.09
[4]
  self-aminoacylation: 1.55
[5]
  self-aminoacylation: 1.84
[6]
  self-aminoacylation: 1.45

## AAGUAUGCUAAUCGUCGCAAG [Fam3.1 aminoacylation ribozyme variant]
[1]
  self-aminoacylation: 2.35
[2]
  self-aminoacylation: 1.81
[3]
  self-aminoacylation: 1.56
[4]
  self-aminoacylation: 1.37
[5]
  self-aminoacylation: 1.76
[6]
  self-aminoacylation: 1.71

## AAGUAUGCUCAUAGUCGCAAG [Fam3.1 aminoacylation ribozyme variant]
[1]
  self-aminoacylation: 4.07
[2]
  self-aminoacylation: 1.83
[3]
  self-aminoacylation: 1.3
[4]
  self-aminoacylation: 1.3
[5]
  self-aminoacylation: 2.78
[6]
  self-aminoacylation: 1.5

## AAGUAUGCUGAUAGUCGCAAG [Fam3.1 aminoacylation ribozyme variant]
[1]
  self-aminoacylation: 1.92
[2]
  self-aminoacylation: 1.84
[3]
  self-aminoacylation: 1.65
[4]
  self-aminoacylation: 1.91
[5]
  self-aminoacylation: 1.96
[6]
  self-aminoacylation: 1.94

## AAGUCUGCAAAUAGUCGCAAG [Fam3.1 aminoacylation ribozyme variant]
[1]
  self-aminoacylation: 1.15
[2]
  self-aminoacylation: 0.902
[3]
  self-aminoacylation: 0.671
[4]
  self-aminoacylation: 0.891
[5]
  self-aminoacylation: 1.22
[6]
  self-aminoacylation: 0.888

## AAGUCUGCGAAUAGUCGCAAG [Fam3.1 aminoacylation ribozyme variant]
[1]
  self-aminoacylation: 8.07
[2]
  self-aminoacylation: 1
[3]
  self-aminoacylation: 0.979
[4]
  self-aminoacylation: 1.38
[5]
  self-aminoacylation: 1.2
[6]
  self-aminoacylation: 1.76

## AAGUCUGCUAAUAGACGCAAG [Fam3.1 aminoacylation ribozyme variant]
[1]
  self-aminoacylation: 1.01
[2]
  self-aminoacylation: 0.692
[3]
  self-aminoacylation: 0.715
[4]
  self-aminoacylation: 0.771
[5]
  self-aminoacylation: 0.653
[6]
  self-aminoacylation: 0.669

## AAGUCUGCUAAUAGUAGCAAG [Fam3.1 aminoacylation ribozyme variant]
[1]
  self-aminoacylation: 1.42
[2]
  self-aminoacylation: 0.968
[3]
  self-aminoacylation: 1.08
[4]
  self-aminoacylation: 1.44
[5]
  self-aminoacylation: 1.67
[6]
  self-aminoacylation: 1.24

## AAGUCUGCUAAUAGUCACAAG [Fam3.1 aminoacylation ribozyme variant]
[1]
  self-aminoacylation: 12.6
[2]
  self-aminoacylation: 1.24
[3]
  self-aminoacylation: 1.25
[4]
  self-aminoacylation: 1.3
[5]
  self-aminoacylation: 3.73
[6]
  self-aminoacylation: 1.95

## AAGUCUGCUAAUAGUCGCGAG [Fam3.1 aminoacylation ribozyme variant]
[1]
  self-aminoacylation: 5.39
[2]
  self-aminoacylation: 1.26
[3]
  self-aminoacylation: 1.33
[4]
  self-aminoacylation: 1.36
[5]
  self-aminoacylation: 3.06
[6]
  self-aminoacylation: 1.77

## AAGUCUGCUAAUAGUCGCUAG [Fam3.1 aminoacylation ribozyme variant]
[1]
  self-aminoacylation: 3.35
[2]
  self-aminoacylation: 0.989
[3]
  self-aminoacylation: 0.983
[4]
  self-aminoacylation: 1.29
[5]
  self-aminoacylation: 1.81
[6]
  self-aminoacylation: 0.995

## AAGUCUGCUCAUAGUCGCAAG [Fam3.1 aminoacylation ribozyme variant]
[1]
  self-aminoacylation: 8.38
[2]
  self-aminoacylation: 1.16
[3]
  self-aminoacylation: 1.18
[4]
  self-aminoacylation: 1.08
[5]
  self-aminoacylation: 4.23
[6]
  self-aminoacylation: 1.29

## AAGUCUUCUAAUAGUCGCAAG [Fam3.1 aminoacylation ribozyme variant]
[1]
  self-aminoacylation: 3.19
[2]
  self-aminoacylation: 2.06
[3]
  self-aminoacylation: 1.52
[4]
  self-aminoacylation: 1.83
[5]
  self-aminoacylation: 2.07
[6]
  self-aminoacylation: 1.56

## AAGUGUGCCAAUAGUCGCAAG [Fam3.1 aminoacylation ribozyme variant]
[1]
  self-aminoacylation: 2.66
[2]
  self-aminoacylation: 2.38
[3]
  self-aminoacylation: 1.61
[4]
  self-aminoacylation: 1.78
[5]
  self-aminoacylation: 1.66
[6]
  self-aminoacylation: 1.97

## AAGUGUGCUAAUAGUCCCAAG [Fam3.1 aminoacylation ribozyme variant]
[1]
  self-aminoacylation: 3.77
[2]
  self-aminoacylation: 1.34
[3]
  self-aminoacylation: 1.28
[4]
  self-aminoacylation: 1.24
[5]
  self-aminoacylation: 2.02
[6]
  self-aminoacylation: 1.17

## AAGUGUGCUAAUAGUCGCAAA [Fam3.1 aminoacylation ribozyme variant]
[1]
  self-aminoacylation: 2.76
[2]
  self-aminoacylation: 1.79
[3]
  self-aminoacylation: 1.41
[4]
  self-aminoacylation: 1.52
[5]
  self-aminoacylation: 1.88
[6]
  self-aminoacylation: 2.07

## AAGUGUGCUAAUAGUCGCACG [Fam3.1 aminoacylation ribozyme variant]
[1]
  self-aminoacylation: 2.38
[2]
  self-aminoacylation: 1.19
[3]
  self-aminoacylation: 1.04
[4]
  self-aminoacylation: 1.5
[5]
  self-aminoacylation: 2.16
[6]
  self-aminoacylation: 1.6

## AAGUGUGCUAAUAGUCGUAAG [Fam3.1 aminoacylation ribozyme variant]
[1]
  self-aminoacylation: 28
[2]
  self-aminoacylation: 1.54
[3]
  self-aminoacylation: 1.12
[4]
  self-aminoacylation: 0.899
[5]
  self-aminoacylation: 7.72
[6]
  self-aminoacylation: 1.69

## AAGUGUGCUAAUAGUCUCAAG [Fam3.1 aminoacylation ribozyme variant]
[1]
  self-aminoacylation: 8.7
[2]
  self-aminoacylation: 1.26
[3]
  self-aminoacylation: 1.62
[4]
  self-aminoacylation: 1.44
[5]
  self-aminoacylation: 2.73
[6]
  self-aminoacylation: 1.4

## AAGUGUUCUAAUAGUCGCAAG [Fam3.1 aminoacylation ribozyme variant]
[1]
  self-aminoacylation: 2.39
[2]
  self-aminoacylation: 1.6
[3]
  self-aminoacylation: 1.32
[4]
  self-aminoacylation: 1.64
[5]
  self-aminoacylation: 1.54
[6]
  self-aminoacylation: 1.7

## AAGUUAGCUAAUAAUCGCAAG [Fam3.1 aminoacylation ribozyme variant]
[1]
  self-aminoacylation: 2
[2]
  self-aminoacylation: 1.77
[3]
  self-aminoacylation: 1.26
[4]
  self-aminoacylation: 1.38
[5]
  self-aminoacylation: 1.12
[6]
  self-aminoacylation: 1.3
